# ChEMBL document CHEMBL1142886, “Substrate specificity analysis and inhibitor design of homoisocitrate dehydrogenase” (Bioorg Med Chem, 2007)
# B1: Homoisocitrate dehydrogenase, mitochondrial (Saccharomyces cerevisiae S288c), P40495 (protein)
# chain: MFRSVATRLSACRGLASNAARKSLTIGLIPGDGIGKEVIPAGKQVLENLNSKHGLSFNFIDLYAGFQTFQETGKALPDETVKVLKEQCQGALFGAVQSPTTKVEGYSSPIVALRREMGLFANVRPVKSVEGEKGKPIDMVIVRENTEDLYIKIEKTYIDKATGTRVADATKRISEIATRRIATIALDIALKRLQTRGQATLTVTHKSNVLSQSDGLFREICKEVYESNKDKYGQIKYNEQIVDSMVYRLFREPQCFDVIVAPNLYGDILSDGAAALVGSLGVVPSANVGPEIVIGEPCHGSAPDIAGKGIANPIATIRSTALMLEFLGHNEAAQDIYKAVDANLREGSIKTPDLGGKASTQQVVDDVLSRL
# Key:
# [1] = substrate: C=CCCC[C@H](C(=O)O)[C@@H](O)C(=O)O; test: (§1) Activity of recombinant Saccharomyces cerevisiae homoisocitrate dehydrogenase expressed in Escherichia coli Rosetta cells
# [2] = substrate: C=CC[C@H](C(=O)O)[C@@H](O)C(=O)O; test: as §1
# [3] = substrate: C=C[C@H](C(=O)O)[C@@H](O)C(=O)O; test: as §1
# [4] = substrate: CCCCC[C@H](C(=O)O)[C@@H](O)C(=O)O; test: as §1
# [5] = substrate: CCC[C@H](C(=O)O)[C@@H](O)C(=O)O; test: as §1
# [6] = substrate: CC[C@H](C(=O)O)[C@@H](O)C(=O)O; test: as §1
# [7] = substrate: C[C@H](C(=O)O)[C@@H](O)C(=O)O; test: as §1
# [8] = substrate: O=C(O)CCCC[C@H](C(=O)O)[C@@H](O)C(=O)O; test: as §1
# [9] = substrate: O=C(O)CCC[C@H](C(=O)O)[C@@H](O)C(=O)O; test: as §1
# [10] = substrate: O=C(O)CC[C@H](C(=O)O)[C@@H](O)C(=O)O; test: as §1
# [11] = substrate: O=C(O)[C@@H](CCCCO)[C@@H](O)C(=O)O; test: as §1
# [12] = substrate: O=C(O)[C@@H](CCCO)[C@@H](O)C(=O)O; test: as §1
# [13] = substrate: O=C(O)[C@@H](CCO)[C@@H](O)C(=O)O; test: as §1
# [14] = substrate: C=CCCC[C@H](C(=O)O)[C@@H](O)C(=O)O; test: (§2) Ratio of kcat/km of recombinant Saccharomyces cerevisiae homoisocitrate dehydrogenase expressed in Escherichia coli Rosetta cells above 10 mM
# [15] = substrate: C=CC[C@H](C(=O)O)[C@@H](O)C(=O)O; test: as §2
# [16] = substrate: C=C[C@H](C(=O)O)[C@@H](O)C(=O)O; test: as §2
# [17] = substrate: CCCCC[C@H](C(=O)O)[C@@H](O)C(=O)O; test: as §2
# [18] = substrate: CCC[C@H](C(=O)O)[C@@H](O)C(=O)O; test: as §2
# [19] = substrate: CC[C@H](C(=O)O)[C@@H](O)C(=O)O; test: as §2
# [20] = substrate: C[C@H](C(=O)O)[C@@H](O)C(=O)O; test: as §2
# [21] = substrate: O=C(O)CCCC[C@H](C(=O)O)[C@@H](O)C(=O)O; test: as §2
# [22] = substrate: O=C(O)CCC[C@H](C(=O)O)[C@@H](O)C(=O)O; test: as §2
# [23] = substrate: O=C(O)CC[C@H](C(=O)O)[C@@H](O)C(=O)O; test: as §2
# [24] = substrate: O=C(O)[C@@H](CCCCO)[C@@H](O)C(=O)O; test: as §2
# [25] = substrate: O=C(O)[C@@H](CCCO)[C@@H](O)C(=O)O; test: as §2
# [26] = substrate: O=C(O)[C@@H](CCO)[C@@H](O)C(=O)O; test: as §2
protein,measurement,setting,value
B1,Km,[1],9400 µM
same,kcat,[1],0.14 s⁻¹
same,Km,[2],410 µM
same,kcat,[2],0.34 s⁻¹
same,Km,[3],3400 µM
same,kcat,[3],0.5 s⁻¹
same,Km,[4],7200 µM
same,kcat,[4],0.11 s⁻¹
same,Km,[5],290 µM
same,kcat,[5],0.7 s⁻¹
same,Km,[6],600 µM
same,kcat,[6],0.61 s⁻¹
same,Km,[7],5700 µM
same,kcat,[7],0.32 s⁻¹
same,Km,[8],170 µM
same,kcat,[8],3.1 s⁻¹
same,Km,[9],26 µM
same,kcat,[9],1.6 s⁻¹
same,Km,[10],18 µM
same,kcat,[10],17 s⁻¹
same,Km,[11],440 µM
same,kcat,[11],2.1 s⁻¹
same,Km,[12],580 µM
same,kcat,[12],4.8 s⁻¹
same,Km,[13],2100 µM
same,kcat,[13],0.78 s⁻¹
same,kcat/Km,[14],15 M⁻¹ s⁻¹
same,kcat/Km,[15],830 M⁻¹ s⁻¹
same,kcat/Km,[16],150 M⁻¹ s⁻¹
same,kcat/Km,[17],15 M⁻¹ s⁻¹
same,kcat/Km,[18],2400 M⁻¹ s⁻¹
same,kcat/Km,[19],1000 M⁻¹ s⁻¹
same,kcat/Km,[20],56 M⁻¹ s⁻¹
same,kcat/Km,[21],18000 M⁻¹ s⁻¹
same,kcat/Km,[22],62000 M⁻¹ s⁻¹
same,kcat/Km,[23],940000 M⁻¹ s⁻¹
same,kcat/Km,[24],4800 M⁻¹ s⁻¹
same,kcat/Km,[25],8300 M⁻¹ s⁻¹
same,kcat/Km,[26],370 M⁻¹ s⁻¹
